Data as given in US20230303695A1 (SHANGHAI XBH BIOTECHNOLOGY, published 2023).
Positions count from the first letter of the chain named. Numbers in names are those of the source.

T1: recombinant human IGSF8 extracellular domain tagged by a human Fc region (IGSF8-hFc) (human, UniProt Q969P0 28-579, biotin label in Examples 17, 18 and 28 (site not given))
T1 construct: also called IGSF8-Fc fusion protein; IGSF8-hFc-biotin; not shown: human Fc region
T1 sequence: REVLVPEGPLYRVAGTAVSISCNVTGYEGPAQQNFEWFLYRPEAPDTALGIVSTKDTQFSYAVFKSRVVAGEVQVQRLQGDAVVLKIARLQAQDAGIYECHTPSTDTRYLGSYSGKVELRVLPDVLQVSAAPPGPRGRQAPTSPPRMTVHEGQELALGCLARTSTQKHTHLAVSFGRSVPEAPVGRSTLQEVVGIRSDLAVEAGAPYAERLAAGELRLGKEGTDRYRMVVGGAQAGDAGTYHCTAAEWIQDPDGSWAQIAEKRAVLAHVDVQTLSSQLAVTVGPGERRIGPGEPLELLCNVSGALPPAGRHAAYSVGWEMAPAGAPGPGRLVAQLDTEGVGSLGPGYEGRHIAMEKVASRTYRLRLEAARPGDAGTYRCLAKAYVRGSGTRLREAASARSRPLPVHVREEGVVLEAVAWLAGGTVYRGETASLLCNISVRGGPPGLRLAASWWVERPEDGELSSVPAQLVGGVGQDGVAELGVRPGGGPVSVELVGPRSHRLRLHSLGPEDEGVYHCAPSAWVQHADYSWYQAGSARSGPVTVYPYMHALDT

B1: L1-03 (antibody, V domains shown)
VH: QVQLVESGGGVVQPGRSLRLSCAASGFTFSTYGMHWVRQAPGKGLEWVAVIWDDGSYKYYGDSVKGRFTISRDNSKNTLYLQMNSLRAEDTAVYYCARDGSGWGYAFDIWGQGTMVTVSS
VL: DIQLTQSPSSLSASVGDRVTITCQASQDISEYLNWYQHKPGKAPNPLVFRSPNLETGVPPRFSATGSGTDFSLTITSLQPEDFATYYCQQYDSFPYTFGQGTRLDIK
B2: L1-21 (antibody, V domains shown)
VH: B1 VH with M115L
VL: DIQLTQSPSSLSASVGDRVTITCQASQDIGPWLNWYQHKPGKAPKPLIYGSPNLETGVPSRFSGSGSGTDFTFTISSLQPEDIATYYCQQYDSFPYTFGQGTKVEIK
B3: L1-23 (antibody, V domains shown)
VH: B1 VH with M115L
VL: B2 VL with I48V, Y49F, G64A, F73L, I83F
B4: L1-22 (antibody, V domains shown)
VH: B1 VH with M115L
VL: B2 VL with G30S
B5: L1-19 (antibody, V domains shown)
VH: B1 VH with M115L
VL: B2 VL with L4M, G30S, W32Y, H38Q, P46L, G50D, S51A
B6: L1-25 (antibody, V domains shown)
VH: B1 VH with M115L
VL: B2 VL with G30S, I48V, Y49F, G64A, F73L, I83F
B7: L1-17 (antibody, V domains shown)
VH: B1 VH with M115L
VL: B2 VL with L4M, H38Q, P46L, G50D, S51A
B8: L1-28 (antibody, V domains shown)
VH: B1 VH with M115L
VL: B2 VL with G30E, P31W
B9: L1-30 (antibody, V domains shown)
VH: B1 VH with M115L
VL: B2 VL with I48V, Y49F, S51A, P52D, G64A, F73L, I83F
B10: L1-29 (antibody, V domains shown)
VH: B1 VH with M115L
VL: B2 VL with I48V, Y49F, G50D, S51A, G64A, F73L, I83F
B11: L1-26 (antibody, V domains shown)
VH: B1 VH with M115L
VL: B2 VL with G30S, W32Y, I48V, Y49F, G64A, F73L, I83F
B12: L1-27 (antibody, V domains shown)
VH: B1 VH with M115L
VL: B2 VL with G30S, P31Y, W32N, I48V, Y49F, G64A, F73L, I83F
B13: L1-16 (antibody, V domains shown)
VH: B1 VH with M115L
VL: B2 VL with L4M, H38Q, P46L
B14: L1-24 (antibody, V domains shown)
VH: B1 VH with M115L
VL: B2 VL with W32Y, I48V, Y49F, G64A, F73L, I83F
B15: L1VL-Y91F (antibody, V domains shown)
VH: B1 VH
VL: B1 VL with R50D, S51A, P52A, Y91F
B16: L1VH-D53Y (antibody, V domains shown)
VH: B1 VH with D53Y
VL: B1 VL with R50D, S51A, P52A
B17: L1-05 (antibody, V domains shown)
VH: B1 VH
VL: B1 VL with S30T, E31K, Y32G, R50D, S51A, P52A
B18: L1-15 (antibody, V domains shown)
VH: B1 VH
VL: B1 VL with S30M, E31K, Y32T, R50D, S51A, P52A
B19: L1-08 (antibody, V domains shown)
VH: B1 VH
VL: B1 VL with S30G, E31A, R50D, S51A, P52A
B20: L1-12 (antibody, V domains shown)
VH: B1 VH
VL: B1 VL with R50G, S51A, P52D
B21: L1-06 (antibody, V domains shown)
VH: B1 VH
VL: B1 VL with S30G, E31P, Y32W, R50D, S51A, P52A
B22: L1VL-V48D (antibody, V domains shown)
VH: B1 VH
VL: B1 VL with V48D, R50D, S51A, P52A
B23: L1-10 (antibody, V domains shown)
VH: B1 VH
VL: B1 VL with R50T, P52A
B24: L1-11 (antibody, V domains shown)
VH: B1 VH
VL: B1 VL with S30E, E31W, Y32A, R50D, S51A, P52A
B25: L1-13 (antibody, V domains shown)
VH: B1 VH
VL: B1 VL with R50D, S51A
B26: L1VH-D54T (antibody, V domains shown)
VH: B1 VH with D54T
VL: B1 VL with R50D, S51A, P52A
B27: L1-09 (antibody, V domains shown)
VH: B1 VH
VL: B1 VL with R50A, S51R, P52D
B28: L1-04 (antibody, V domains shown)
VH: B1 VH
VL: B1 VL with R50G
B29: L1-07 (antibody, V domains shown)
VH: B1 VH
VL: B1 VL with S30E, E31W, Y32W, R50D, S51A, P52A
B30: L1VH-D99N (antibody, V domains shown)
VH: B1 VH with D99N
VL: B1 VL with R50D, S51A, P52A
B31: L1VL-P46L (antibody, V domains shown)
VH: B1 VH
VL: B1 VL with P46L, R50D, S51A, P52A
B32: L1VH-W52L (antibody, V domains shown)
VH: B1 VH with W52L
VL: B1 VL with R50D, S51A, P52A
notes: mutant of the L1 antibody
B33: L1-14 (antibody, V domains shown)
VH: B1 VH
VL: B1 VL with R50S, S51Q
B34: L1VL-Q24H (antibody, V domains shown)
VH: B1 VH
VL: B1 VL with Q24H, R50D, S51A, P52A

Biological target: T1, recombinant human IGSF8 extracellular …
Test: SPR, Ab captured
Procedure: The binding affinities of the L1 and L2 antibodies to IGSF8 recombinant protein were determined by surface plasmon resonance (SPR). Briefly, anti-human Fab antibody was imobilized on acarboxyl-derivatized SPR chip surface, and the antibodies were captured on the resulting surface at 5 μg/ml for 30 seconds.

Binder | Kd | koff | kon
B1 | 5.88 nM | 0.00172 s⁻¹ | 293000 M⁻¹ s⁻¹
B2 | 6.71 nM | 0.00272 s⁻¹ | 406000 M⁻¹ s⁻¹
B3 | 0.00235 nM | 1.19e-06 s⁻¹ | 506000 M⁻¹ s⁻¹
B4 | 2.94 nM | 0.000363 s⁻¹ | 123000 M⁻¹ s⁻¹
B5 | 4.58 nM | 0.000705 s⁻¹ | 154000 M⁻¹ s⁻¹
B6 | 4.46 nM | 0.0022 s⁻¹ | 492000 M⁻¹ s⁻¹
B7 | 3.78 nM | 0.0012 s⁻¹ | 318000 M⁻¹ s⁻¹
B8 | 0.00117 nM | 4.28e-07 s⁻¹ | 367000 M⁻¹ s⁻¹
B9 | 0.00642 nM | 3.03e-06 s⁻¹ | 472000 M⁻¹ s⁻¹
B10 | 0.0112 nM | 4.25e-06 s⁻¹ | 381000 M⁻¹ s⁻¹
B11 | 0.987 nM | 0.000497 s⁻¹ | 503000 M⁻¹ s⁻¹
B12 | 1.88 nM | 0.000835 s⁻¹ | 444000 M⁻¹ s⁻¹
B13 | 3.33 nM | 0.00111 s⁻¹ | 333000 M⁻¹ s⁻¹
B14 | 0.0068 nM | 3.06e-06 s⁻¹ | 450000 M⁻¹ s⁻¹
B15 | 321 nM | 0.00145 s⁻¹ | 4500 M⁻¹ s⁻¹
B16 | 365 nM | 0.0168 s⁻¹ | 46100 M⁻¹ s⁻¹
B17 | 6.17 nM | 0.00148 s⁻¹ | 241000 M⁻¹ s⁻¹

Binder | Kd | koff | kon
B18 | 4.28 nM | 0.00155 s⁻¹ | 362000 M⁻¹ s⁻¹
B19 | 5.78 nM | 0.00253 s⁻¹ | 437000 M⁻¹ s⁻¹
B20 | 3.08 nM | 0.00142 s⁻¹ | 461000 M⁻¹ s⁻¹
B21 | 2.3 nM | 0.00104 s⁻¹ | 453000 M⁻¹ s⁻¹
B22 | 708 nM | 0.023 s⁻¹ | 32400 M⁻¹ s⁻¹
B23 | 6.52 nM | 0.00196 s⁻¹ | 301000 M⁻¹ s⁻¹
B24 | 7.08 nM | 0.0024 s⁻¹ | 339000 M⁻¹ s⁻¹
B25 | 4.88 nM | 0.00216 s⁻¹ | 443000 M⁻¹ s⁻¹
B26 | 571 nM | 0.00131 s⁻¹ | 2290 M⁻¹ s⁻¹
B27 | 5.47 nM | 0.00223 s⁻¹ | 408000 M⁻¹ s⁻¹
B28 | 7.33 nM | 0.0022 s⁻¹ | 300000 M⁻¹ s⁻¹
B29 | 1.34 nM | 0.000445 s⁻¹ | 332000 M⁻¹ s⁻¹
B30 | 138 nM | 0.00246 s⁻¹ | 17800 M⁻¹ s⁻¹
B31 | 124 nM | 0.00341 s⁻¹ | 27500 M⁻¹ s⁻¹
B32 | 855 nM | 0.0165 s⁻¹ | 19300 M⁻¹ s⁻¹
B33 | 6.41 nM | 0.00244 s⁻¹ | 381000 M⁻¹ s⁻¹
B34 | 144 nM | 0.00775 s⁻¹ | 53700 M⁻¹ s⁻¹
